Source: US20250387484A1 (US Dept. of Health and Human Services, published 2025)
Substitutions are numbered along the chain they refer to.

B1: antibody 14569 (antibody, human IgG4 S228P, kappa, V domains shown)
VH: EVQLVESGGGLVQPGGSLRLSCAASGYWFSSWGMSWVRQAPGKGLELVSTINGYGDTTYYPDSVKGRFTISRDNSKNTLYLQMNSLRAEDTAVYYCARDRDYSNSYYYAHDYWGQGTLVTVSS
VL: EIVLTQSPATLSLSPGERATLSCRASSYVSFMHWLQQKPGQAPRPWIYATMNLASGVPARFSGSGSGTDYTLTISSLEPEDFAVYYCQQWSSNPPAFGGGTKVEIKR
B2: antibody 14564 (antibody, human IgG4 S228P, kappa, V domains shown)
VH: B1 VH with Y27F, W28T
VL: B1 VL with M51A
B3: antibody 14572 (antibody, human IgG4 S228P, kappa, V domains shown)
VH: B1 VH with W32Y, S103T
VL: B1 VL

Each binder was assayed against T1, human CD25 on KIT-225 cells (human, UniProt P01589 22-272) (assay: flow cytometry (FACS) on CD25-expressing KIT-225 cells, secondary antibody, MFI against antibody concentration).
T1 construct: whole, on cells; also called hCD25; IL-2Rα
T1 sequence (looked up): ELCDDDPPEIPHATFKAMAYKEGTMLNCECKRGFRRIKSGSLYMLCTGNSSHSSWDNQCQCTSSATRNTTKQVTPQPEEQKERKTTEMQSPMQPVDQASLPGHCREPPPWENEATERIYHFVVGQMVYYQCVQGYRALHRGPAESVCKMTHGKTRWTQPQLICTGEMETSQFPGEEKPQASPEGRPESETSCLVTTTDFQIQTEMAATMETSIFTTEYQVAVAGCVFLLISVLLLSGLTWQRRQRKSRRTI
Description: KIT-225 cells were washed once with FACS buffer, counted, and resuspended at a concentration of 1×10⁶/mL in FACS buffer. To 5 mL (5×10⁶ total) of cells, 25 μL of viable dye (Thermo Fisher, L34974, equivalent to 1:200 dilution) was added and mixed well. After incubation at 4° C. for 30 minutes, cells were washed twice with FACS buffer (200×g, 5 minutes each). Cells were resuspended in 5 mL FACS buffer and 100 μL was added per well, followed by addition of 100 μL diluted antibody. The solution was mixed by pipetting up and down and then incubated at 4° C. for 60 minutes, after which cells were washed twice with FACS buffer (200×g, 5 minutes each). Cells were resuspended in 100 μL FACS buffer. Fifty μL of secondary antibody was diluted in 5 mL FACS buffer (equivalent to 1:100 dilution), and 100 μL was added to each well and mixed by pipetting up and down. Following incubation at 4° C. for 30 minutes, cells were washed twice with FACS buffer (200×g, 5 minutes each), and resuspended in approximately 250 μL FACS buffer. FACS analysis was performed with Attune Flow cytometer using tube reading module.
With B1 the “EC50 (read off the curve)” value was about 0.5 mg/L.
For B2, the “EC50 (read off the curve)” value was about 0.6 mg/L.
B3 was tested, and the “EC50 (read off the curve)” value was about 0.4 mg/L.

Each binder was assayed against T2, cynomolgus CD25 (cynomolgus, UniProt H6WS54 22-213) (assay: SPR, Biacore 8K, antibody captured on Protein A chip, cynomolgus CD25 as analyte, 25 C).
T2 construct: Analyte in the SPR assay; also called CD25 (sIL-2 Receptor α)
T2 sequence: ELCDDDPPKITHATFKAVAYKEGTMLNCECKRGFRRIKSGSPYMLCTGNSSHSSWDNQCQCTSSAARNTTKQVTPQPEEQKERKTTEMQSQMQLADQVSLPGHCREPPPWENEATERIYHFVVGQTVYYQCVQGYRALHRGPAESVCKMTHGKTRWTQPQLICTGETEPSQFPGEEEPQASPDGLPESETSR
Description: Running buffer was prepared by diluting one volume of 10× buffer with 9 volumes of degassed, filtered MilliQ water. Regeneration buffer (10 mM glycine) was prepared by dissolving glycine in MilliQ water and adjusting the pH to approximately 1.5-1.7. The assay was performed at 25° C. using HBS-EP+ as the running buffer. Antibodies were injected as capture on the Series S Sensor Chip Protein A. Antigens were diluted to multiple concentrations and injected over the surface of flow cell 1 and 2 as association phase, followed by injection of running buffer as dissociation phase.
All data were processed using the BIACORE™ 8K Evaluation software version 3.0. Flow cell 1 and blank injection of buffer in each cycle were used as double reference for Response Units (RU) subtraction. […] VH2+VL4 is a parental antibody (before affinity maturation).
For B1, the Kd was 0.0185 µM, the koff was 0.000714 s⁻¹ and the kon was 38500 M⁻¹ s⁻¹.
With B2 the Kd was 0.0174 µM, the koff was 0.000744 s⁻¹ and the kon was 42600 M⁻¹ s⁻¹.
Binder B3 has a Kd of 0.0196 µM, a koff of 0.000679 s⁻¹ and a kon of 34700 M⁻¹ s⁻¹.
